Target: chimeric receptor comprising mouse TNFR1 external domain (AA 1 to AA 210) linked to the transmembrane and intracellular domains of mouse RANK (AA 210 to AA 625) (mouse)
Assay: cell-based or functional assay

Chain of chimeric receptor comprising mouse TNFR1 external domain (AA 1 to AA 210) linked to the transmembrane and intracellular domains of mouse RANK (AA 210 to AA 625) (mouse) (chain, as listed by the source mutant): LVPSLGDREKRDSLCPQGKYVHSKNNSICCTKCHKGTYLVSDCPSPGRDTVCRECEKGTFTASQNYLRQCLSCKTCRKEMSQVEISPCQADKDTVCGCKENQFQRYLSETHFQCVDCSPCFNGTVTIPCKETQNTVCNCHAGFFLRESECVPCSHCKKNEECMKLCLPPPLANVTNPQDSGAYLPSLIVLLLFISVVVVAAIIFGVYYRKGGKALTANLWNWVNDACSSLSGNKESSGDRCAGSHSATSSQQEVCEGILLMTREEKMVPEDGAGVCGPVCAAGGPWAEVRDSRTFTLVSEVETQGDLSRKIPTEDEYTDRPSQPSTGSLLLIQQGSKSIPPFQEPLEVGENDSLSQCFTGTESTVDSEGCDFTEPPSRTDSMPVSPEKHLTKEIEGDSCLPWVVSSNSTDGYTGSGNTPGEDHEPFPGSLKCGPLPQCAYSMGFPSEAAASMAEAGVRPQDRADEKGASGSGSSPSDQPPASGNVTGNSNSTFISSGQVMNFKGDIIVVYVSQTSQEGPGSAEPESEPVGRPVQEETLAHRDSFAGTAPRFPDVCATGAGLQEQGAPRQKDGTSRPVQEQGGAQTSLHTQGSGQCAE

“Recombinant mouse TNFα (410-TRNC-050, R&D Systems) (from UniProt P06804 84-235) (ligand)” was tested, and the osteoclast formation, lowest TNFα concentration still active was 1 ng/mL.
